Laboratory results as given in patent US20020102709A1.

Columns and labels:
[1] = molecular target: bovine serum albumin (BSA, Sigma) (bovine) (UniProt P02769); assay: ELISA, serum albumin coated, FNCBD-EGF (concentration not given), detection with anti-FNCBD monoclonal antibody
[2] = molecular target: bovine serum albumin (BSA, Sigma) (bovine) (UniProt P02769); assay: ELISA, serum albumin coated, 0.1 µg/ml FNCBD-FGF, detection with anti-FNCBD monoclonal antibody

Sequence of UniProt P02769 (P02769 25-607 limits assumed): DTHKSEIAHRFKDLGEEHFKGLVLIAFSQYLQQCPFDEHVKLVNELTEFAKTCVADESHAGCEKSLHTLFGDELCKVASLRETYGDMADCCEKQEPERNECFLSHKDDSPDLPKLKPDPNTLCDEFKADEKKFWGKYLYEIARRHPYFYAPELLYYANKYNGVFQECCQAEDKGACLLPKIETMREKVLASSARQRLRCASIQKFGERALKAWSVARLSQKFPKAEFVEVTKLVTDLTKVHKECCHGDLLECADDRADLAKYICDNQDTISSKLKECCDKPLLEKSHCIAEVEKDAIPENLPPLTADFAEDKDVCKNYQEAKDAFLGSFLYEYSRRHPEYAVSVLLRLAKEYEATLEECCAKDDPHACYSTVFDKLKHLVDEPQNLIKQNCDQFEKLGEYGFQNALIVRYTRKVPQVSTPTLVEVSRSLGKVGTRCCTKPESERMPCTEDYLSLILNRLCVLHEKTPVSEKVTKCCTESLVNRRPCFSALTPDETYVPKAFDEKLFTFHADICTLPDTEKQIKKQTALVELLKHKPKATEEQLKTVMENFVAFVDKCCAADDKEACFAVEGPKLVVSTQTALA

| absorption at 492 nm (absorption (492 nm)) [1] | absorption at 492 nm (absorption (492 nm)) [2] | Substance |
| --- | --- | --- |
| 0.11 | – | human FNCBD/human EGF hybrid polypeptide (FNCBD-EGF) |
| – | 0.27 | human FNCBD/human bFGF hybrid polypeptide (FNCBD-FGF) |
